According to patent publication EP4678184A2 (CREATE Medicines, Inc., dated 2026):

Molecular target: T1, Alexa488 conjugated human CD5 protein (human, UniProt P06127 25-372, limits assumed, Alexa488 conjugated (site not stated))
T1 sequence (looked up): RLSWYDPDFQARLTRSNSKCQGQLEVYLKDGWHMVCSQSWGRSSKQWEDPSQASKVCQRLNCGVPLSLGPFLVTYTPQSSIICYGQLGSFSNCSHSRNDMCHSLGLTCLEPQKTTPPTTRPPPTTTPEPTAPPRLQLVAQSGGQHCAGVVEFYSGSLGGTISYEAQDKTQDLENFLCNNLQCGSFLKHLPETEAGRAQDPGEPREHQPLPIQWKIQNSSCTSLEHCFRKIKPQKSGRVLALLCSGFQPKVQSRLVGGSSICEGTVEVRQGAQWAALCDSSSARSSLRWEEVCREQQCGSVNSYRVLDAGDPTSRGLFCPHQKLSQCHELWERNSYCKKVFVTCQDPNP
Test: flow cytometry, labelled soluble CD5 on electroporated CD14+ monocytes, 24, 48 and 72 hours post thaw

B1: CD5-CAR (anti-CD5 chimeric antigen receptor on electroporated CD14+ monocytes, Example 15) (receptor, not shown: small tags and cut ends)
chain: EIQLVQSGGGLVKPGGSVRISCAASGYTFTNYGMNWVRQAPGKGLEWMGWINTHTGEPTYADSFKGRFTFSLDDSKNTAYLQINSLRAEDTAVYFCTRRGYDWYFDVWGQGTTVTVSSGGGGSGGGGSGGGGSDIQMTQSPSSLSASVGDRVTITCRASQDINSYLSWFQQKPGKAPKTLIYRANRLESGVPSRFSGSGSGTDYTLTISSLQYEDFGIYYCQQYDESPWTFGGGTKLEIK
notes: also called CD5-CAR monocytes
B1: binds.
